Experiment: soluble on expression in E. coli; label from the status in PepcDB or PDB records

Row | Sequence | soluble on expression in E. coli
1 | MKDLIIIGAGQAGLTMGYYLKQEGYNFLLLEAGNRVGDSWRNRYDSLQLFTPRSYSSLPGMALIGEKNEFPYKDEIATYLEEYARHFQLPVQLQTEVLKIRKEKGIFELHTSTEILQTKKVIIATGGFQQPFIPSVSANLSSHVFQIHSSQYKSPSQIPQGKVLVVGGGNSGMQIAVEFAKTHEVTMSISHPLTFLPLHFFRKSIFNWLEKLGLLYAEVSTKRGKWFQKRKDPLEHHHHHH | soluble
2 | MSLAQGANAPLNIPANPQMFGTNDPNVRRATAIVNGEIITGTDVEQRLALIVSANGGKIDGEEKERLRMQVLRNLIDETLQIQEAKAADVPADDGQVDASYERVATQNFGQSADALEKYLARIGSSAASLKRQIRGEIAWQNLLRRNVQPFVNVSEGEVQEAMQRLQASKGTEEYRIGEIFLAATEENKPQVFANAEKIVEQLKQGGSFVAYARQYSEASTAAVGGDLGWIRLAQLPTELATTAASMGPGQLAGPVEIRGGFSILYLIDKREGHHHHHH | soluble
3 | MSSNNRKKLLLMGRSGSGKSSMRSIIFSNYSAFDTRRLGATIDVEHSHLRFLGNMTLNLWDCGGQDVFMENYFTKQKDHIFQMVQVLIHVFDVESTEVLKDIEIFAKALKQLRKYSPDAKIFVLLHKMDLVQLDKREELFQIMMKNLSETSSEFGFPNLIGFPTSIWDESLYKAWSQIVCSLIPNMSNHQSNLKKFKEIMNALEIILFERTTFLVICSSNGENSNENHDSSDNNNVLLDPKRFEKISNIMKNFKQSCTKLKSGFKTLILNNNIYVSELSSNMVCFIVLKDMNIPQELVLENIKKAKEFFQ | soluble
4 | AYSELQMLSPSERQCVETVVNMGYSYECVLRAMKKKGENIEQILDYLFAH | soluble
5 | MKVAEIIVVEGKDDTRRIQEVVAADTIETIGSAINDEILTQIEHAQETRGVIIFTDPDYSGEKIRKTIMEVVPDAKHAFLSRKVAVPKKNGGSLGVEHASDEAIIEALKKVVTPVQADEDYQEIPRQTLVEYGLIAGANAKKYRELLGDDLRIGYTNSKQLVKRLSMFRITEAELKESMTRILKELANEE | not soluble
6 | MKQEFVAAIEIDGTGRIHVTPGESQFPYIYREAMEVSWNESTRSLHSPVPREWSYAQWLQQIFAAASEQGVKLVLGPNTRWVNVPNELRAELTHAAAA | soluble
7 | MSLRKTVAFGFVGTVLDYAGRGSQRWSKWRPSLCICQQESLVIDRLELLHDARSRSLFETLKRDIASVSPETEVVSVEIELHNPWDFEEVYACLHDFARGYEFQPEKEDYLIHITTGTHVAQICWFLLAEARYLPARLIQSSPPRKKEQPRGAGEVTIIDLDLSLYNAIASRFAEERQQTLDEGHHHHHH | soluble
8 | MSLTISLGYRALDVGRARAHALIDQLSARESVELLCEAFEVPRSCYYNHRLRRRNPDVERVRLRSRVNELFTQSRSAAGSRSIVLMMHEDGEQIGRFKVRSLMRELGLISKQPGSHAYRKATVERPDIPNILNRAFDVPAPNQVWCGDITYIWAQGKWHYLAVVMDLFARRVVGWALSSKPDTDLVIKALDMAYEQRGKPQGLLFHSDQGAQYGSRQFRQRLWRYRIRQSMSRRGNCWDNAPMERVFRSLKTEWIPTVGYMTAQEAQRDISHYLMHRYNWIRPHQFNNGLAPAQSEKRLNVVSGISEGHHHHHH | not soluble
9 | MMKITDEKAEDVNLSTIKVVKRDGRLVTFDDQKIYDALIKAEQKIHDQVTPLTHQKVQSIVADVNREIAERFTNNVKIYEIQNIVEHTLLSNNEYALAEEYIHYRTQRDFERSKATD | not soluble
10 | MGSDKIHHHHHHMSTNPSLPWHAGELALQARVGVAAKMEDVGRRVMRDYMPDQHREFFAQMPFVVLGTVAPDGRVWATLRAGRPGFLQSPDARILELRLPREAADPADAGMEDGQPLGLLGIDLMTRRRNRMNGVLRRADRDGADLRIDVVQSFGNCPRYIQQRAFRFTRDPSEQTTIAPLAMGALDSRARALIASADAFFVASYADRPEAGRQVDVSHRGGEPGFVRIDADGGLTIPDFAGNLFFNTLGNFMVNPAAGVTFADFDTGELLQMSGRVEVIVDSPEIAAFQGAERLWRFFPEKIVRREAALPMRWARAGDAADE | not soluble
11 | MSLRYTNSHLEDWIENLYKKIDITEPEQINFERIAEALDIRLSFKPVTSFALKHSGIYNICLDSRKSRTEQWYDFAHEFCHIYRHEGDKKTMPATWTDYLDWQSNYFTYHFCIPTCMLRNINLPYIQSHAIENVAWLFKVSPSFAKKRLSIYYRKLTQHLFSQTVTGNLCPPFLEGHHHHHH | not soluble
12 | SLGMIKNSLFGSVETWPWQVLSKGDKEEVAYEERACEGGKFATVEVTDKPVDEALREAMPKVAKYAGGTNDKGIGMGMTVPISFAVFPNEDGSLQKKLKVWFRIPNQFQSDPPAPSDKSVKIEEREGITVYSMQFGGYAKEADYVAQATRLRAALEGTATYRGDIYFCTGYDPPMKPYGRRNEIWLLKT | soluble
13 | AMVSVSGIRKVQRAEGPATVLAIGTANPPNCVDQSTYADYYFRVTNSEHMTDLKKKFQRICERTQIKNRHMYLTEEILKENPNMCAYKAPSLDAREDMMIREVPRVGKEAATKAIKEWGQPMSKITHLIFCTTSGVALPGVDYELIVLLGLDPSVKRYMMYHQGCFAGGTVLRLAKDLAENNKDARVLIVCSENTSVTFRGPSETDMDSLVGQALFADGAAAIIIGSDPVPEVENPLFEIVSTDQQLVPNSHGAIGGLLREVGLTFYLNKSVPDIISQNINDALSKAFDPLGISDYNSIFWIAHPGGRAILDQVEEKVNLKPEKMKATRDVLSNYGNMSSACVFFIMDLMRKKSLEAGLKTTGEGLDWGVLFGFGPGLTIETVVLRSMAI | soluble
14 | RRNALELEVFAGQEKSELSMIEVARAILELRGRDHEMHFSDLVNEIQNYLGTSNSDIREALPLFYTELNFDGSFISLGDNKWGLRSWYGVDEIDEEIIALEENDDDEVAPKAKKKRVNAFMDGDSDAIDYNADDPEDEDAYEADPALSYDDENPDDEKNEVEAYDAEINEIAPDDLGEDVDLNEDDDEFSDDDAET | not soluble
15 | MGSDKIHHHHHHMNTLVLPKTQHLVVFQEVIRSGSIGSAAKSLGLTQPAVSKIISDVEAYFGVELIVRKNTGVTLTEAGQVLLSWSESITREMKNMINEMNSMTCNTVVDVSFGFPSLIGFTFMSDMIHKFKEVFPKAQVSMYEAQLSSFLPALRDGRLDFAIGTLSNEMQLQDLHVEPLFESEFVLVASKSRTCTGTITLESLKDEQWVLPQTNMGYYSELLTTLQRNGISIENIVKTDSVVTIYNLVLNADFLTVIPCDMTTPFGSNQFITIPIQDTLPVARYAAVWSKNYRIKKAASVLVELAKQYSSYNGCRRRQLIEIE | not soluble
16 | MSLKNVTEKNREIYKQLNDRQEEISRLQRDLIQTKEQVSINSNKILVYESEMEQCKQRYQDLSQQQKDAQKKDIEKLTNEISDLKGKLSSAENANADLENKFNRLKKQAHEKLDASKKQQAALTNELNELKAIKDKLEQDLHFENAKVIDLDTKLKAHELQSEDVSRDHEKDTYRTLMEEIESLKKELQIFKTANSSSDAFEKLKVNMEKEKDRIIDERTKEFEKKLQETLNKSTSSEAEYSKDIETLKKEWLKEYEDETLRRIKEAEENLKKRIRLPSEERIQKIISKRKEELEEEFRKKLKENAGSLTFLDNKGSGEDAEEELWNSPSKGNSERPSAVAGFINQKNLKPQEQLKNVKNDVSFNDSQSMVTNKENNIVDSSAAGNKAIPTFSFGKPFFSSNTSSLQSFQNPFTASQSNINTNAPLRTLNIQPEVAVKAAINFSNVTDLTNNSTDGAKITEIGSTSKRPIESGTSSDPDTKKVKESPANDQASNEEGHHHHHH | soluble
17 | MSLAMNNILGLFAHSPLKPLQKHSEKVTECSDLLIPFFQTTFSKNWEQAEEKRLEISQCEREADSLKREIRLKLPRGLFLPIDRTDLLELVTQQDKLANYAKDIAGRMIGRQFGIPEEMQEEFLHYVKRSLDAIHQAHRVIEEMDKLLETGFKGRELKLVNDMIQELDSIEDDTDQMQIKLRKMLYTIESRYNPIDVMFLYKIIEWVGVLADQAQRVGSRIELMLARSEGHHHHHH | soluble
18 | MENVTNFPLLQLPSKTIQVVLSIMSPFELINFSKSSAEAKKVVKQFANAKRRELYKFKVCIGLIPFVAFV | not soluble
19 | MAKVLVLGGGIGGTEAAIALRKEGFEVSLVSDKPYLYIYPISIWIPTGEAKFEDVIIPLDKFARRWGVNLIIDRVEKIDAQNKKVHLKSGKVLEDFDYLVVALGQTKRKEKGLENTLSICGSPEEALKIRDRLVELIAKGEGKIAFGFGGNPKDKTAVRGRPVFEVLFNVDYHLSRLGIRDRFELTFFAPMPKPGERLGEKALKMLDQMFQKYGIKKITGKKIKEFKENGVLFEDDTFLESDLIIYTPAGWGNPVFADSGFPLNEAGFIKIEETCQVVGYEWAYAIGDSAAIEGPPWTAKQGHLAEVMGHITAHNIAVKEGKKSGELKSYKEHINILCLMDMGWRGGGFAYRSDKRAMLIPIPVLGHIMKKAWGVYYKLYKLGKIPKII | not soluble
20 | MPCRLTRLFGIEFPIIQAPMAGVQGSALAIAVSEAGGLGSLPCAMLSLEALEAELTAIRSQTAKPINVNFFCHREPVAQAAKQAAWLEQLAPYFAEFNLDPNAQPAGAQRTPYSKAQAEVLAKFKPEVVSFHFGLPDEELLLEIKSWGSKVISTATTVEEALWLEARGADAIIAQGLEAGGHRGHFLSEDLTEQLGTFSLLPQIIAAVEIPVIAAGGIVDATTVRAAMTMGASAVQVGTAYLLCPECNTSAIHREALQSDAAQHTALTNLFSGRPARGIVNRFMAEMGPMNEAVPDFPLASSAVAGLRTAAERLGFWDFSPLWCGQNASGCRAIPAADLTRSFVLSLPSSCVEPQEKSG | soluble
21 | MGSDKIHHHHHHMGNILWVASYPKSGNTWVRAFLENYIQNQAQPIDINTMHTISTAESAAHRYQHYLPKDKTATTELTLEEVSVLRPQVQADIAHQANGTTFVKTHNYLGEYNGHPLHNSSVTSGAIYVVRNPLDVAISMANYFGYSIDEAIAYMAEEMTGTPNEAPHVPQIITSWSMHVSSWTADDASKLILRYEDMLDDPKKVFRKVESFLGLKKDPVRLKNAIKHSSFAQLKAQETKLGFVEKHENANAFFRNGGKHQWKTKLTPEQVQKIVATHYEQMKRFKYLPAGM | not soluble
22 | MGSDKIHHHHHHMDKLASEYKVLIVDDVPTNVMLVQAILKKEGYTLLTCDSGTKALRIANEKHPNLILLDIMMPEMDGYEVLQHLKSNPETTDIPVIIMSALSDMQSIVKGYQLGATEYVTKPFQREELVKRVAHRYELYSIKRIKAELENTIESRDTLYSVIAHDLRSPLGSLKMMNNAILMMVDKERVGDEVYEMIQMMNKTSEEIFLLLDNLLKWAKNRLNKQHVYKQQTDINSIIDSTAEMYVPMAAQKGVKIILENLDKELVGLVDIDMLKTIIRNLISNAMKFSFEGGTITLSSRSEGDFVTVSVKDTGKGIKKEDQDKLLKQDSHFTTYGTKNEKGSGLGLMLCKDFVELHGGKLWFESEGEGKGTTFLFSMKALNQEA | not soluble
23 | LGFNLKEAASIGIIGGADGPTTIYLTTKLAPHILSATAVAAYSYMSLVPLIQPPVIKALTTPEERRIRMEQLRPVSKREK | not soluble
24 | MKIAVVGGGIVGLSTAFELSSRGHSVHVFDPNPASGASHFAGGMLAPAAEVQFQQDPLFPLMKRAGKLWPDMVRRVAQRTNLPTGYRTEGTLVVAADRADAEHLKQLRATQEAAGMDVRPITTRQARGLEPALGPRLSAAVHIPNDTQVAPRVFLTALLDALDDCGVGVIKEKITDLEPLYQQFD | not soluble
